Test results from patent US20050255547A1.

target: oligomerized FasL; assay: cell-based or functional assay

inhibition of FasL-induced apoptosis of A20 cells (IC50) [µg/mL]	Substance
0.035	Fas-COMP (receptor)
> 1	Fas-Fc (Fc fusion)
0.08	FasR:mACRP30 (receptor)
